In US8114412B2, “T. cruzi-derived neurotrophic agents and methods of use therefor” (priority 1999, dated 2012):

Assays:
PC12 cells [1] = assay: Trophic factor withdrawal-induced apoptosis of PC12 cells (DAPI/TUNEL); assay type: cell-based, rat; settings: serum-free RPMI-1640/0.2% BSA, 17 hours, DAPI or TUNEL
From the text: PC12 cells were obtained from ATCC (Manassas, Va. (Accession No. CRL-1721)) and cultured on collagen-coated dishes in RPMI 1640 supplemented with 10% horse serum and 5% fetal bovine serum (Greene, L. A. and Tishler, A. S., Proc. Natl. Acad. Sci. USA, 73: 2424-2428 (1976)). For differentiation and survival experiments, cells were washed three times in serum-free RPMI/0.2% BSA, plated in the same medium in collagen-coated plastic dishes at 2×10^5/ml, without and with growth factors, TS, recombinant proteins, synthetic peptides, for the time and concentrations indicated in the Figures.
Cell staining with 4,6-diamino-2-phenylindole (DAPI). Cells were fixed with 4% formaldehyde in PBS for 5 minutes, washed with PBS, stained with 10 μg/ml DAPI (Sigma) for 2 minutes, washed with PBS, and visualized under UV light using a fluorescent microscope. About 300-400 cells were examined under the microscope to determine the percentage of apoptotic cells.
Cell DNA nick end labeling (TUNEL) (Gavrieli, Y., et al., J. Cell. Biol. 119: 493-501 (1992)) assay was performed using a kit purchased from Boehringer Mannheim as described by the manufacturer.
(§1) Protection against apoptosis of PC12 cells in serum-free medium containing a test agent (agent N)(e.g., protection induced by TS, TS fragments, NGF or other growth factors), was calculated by the formula: 100%-[(apoptosis(%) of cells kept in RPMI containing test agent N÷apoptosis (%) of cells kept in RPMI)×100%]. Testing the effect of wortmannin (Sigma) and LY294002 (Sigma) in inhibiting the neuroprotection of TS was performed following the protocol described by others (Yao and Cooper, Science, 267:2003-2006 (1995); D'Mello et al., J. Neurosci 17:1548-1560 (1997)). In brief, PC12 cells were switched from growth medium to RPMI without and with TS or various other growth factors. After 24 hr, wortmannin and LY294002 were added to the cultures. After another 24 hrs, cells were examined for apoptosis by the DAPI assay, as above.

Bcl-2 mRNA in PC12 cells = assay: RT-PCR of Bcl-2 gene transcripts in PC12 cells; assay type: cell-based, rat; settings: TS 2.5 ng/ml, CNTF 50 ng/ml, alone or combined, 17 hours
Protocol: Total RNA was extracted from PC12 cells by the acid guanidinum isothiocyanate method (Chomchinski, P., et al., Biotechniques 15: 532-535 (1993)) using TRI-reagent (Molecular Research Center, Inc.). cDNA synthesis was performed according to the instruction of the manufacturer (Gibco-BRL). Reverse transcription reactions were carried out for 50 minutes at 42° C. and were heated to 70° C. for 15 minutes to terminate the reaction using a MiniCycler (MJ Research). Samples were cooled to 4° C. and stored at −20° C. until use.
PCR reactions were performed in 50 μl containing 1.5 μl of template DNA (corresponding to cDNA synthesized from 100 ng of total RNA), 1×PCR buffer, 100 μM of deoxynucleotides, 2.5 mM MgCl2, 10 mM DTT, 10 pM of Bcl-2 primers, and 2 U of Taq DNA polymerase (Gibco-BRL). The synthetic DNA primers for the rat Bcl-2 were: 5′-[…]-3′ (SEQ ID NO:8) and 5′-[…]-3′(SEQ ID NO:9) to give a PCR product of 566 bp. The sequences for synthetic GAPDH DNA primers (Wong, H., et al., Anal. Biochem. 223: 251-258 (1994)) were: 5′-[…]-3′ (SEQ ID NO:10) and 5′-[…]-3′ (SEQ ID NO:11) giving a PCR produce of 306 base pairs. Amplifications were carried out in MiniCycler (MJ Research) using following conditions: 98° C. for 5 minutes (initial heat denaturation), 3 cycles of 94° C. for 1 minute, 63° C. for 1 minute, 72° C. for 1.5 minutes; 3 cycles of 94° C. for 1 minutes, 60° C. for 1 minute, 72° C. for 1.5 minutes, followed by 72° C. for 10 minutes. Primers for GAPDH (10 pM) were added at cycle 7 by the “primer-dropping” method. Aliquots of PCR reaction products were separated by electrophoresis in 2% agarose gels (Ultrapure, Gibco-BRL), containing 0.2 μg/ml ethidium bromide. Gels were analyzed by computerized densitometric scanning using Gel doc 1000 (Bio Rad) and Molecular Analyst Software, version 2.1.

PC12 cells [2] = assay: Reversal of TS-induced neuroprotection by PI-3 kinase inhibitors in PC12 cells; assay type: cell-based, rat; settings: RPMI+CNTF 50 ng/ml; similar to RPMI alone
Protocol: as §1

[3] = Martin et al. 1996; cited from earlier work

B1: CNTF: human ciliary neurotrophic factor; recombinant human and rat CNTF (protein, UniProt P26441 1-200, looked up)
Ciliary neurotrophic factor: MAFTEHSPLTPHRRDLCSRSIWLARKIRSDLTALTESYVKHQGLNKNINLDSADGMPVASTDQWSELTEAERLQENLQAYRTFHVLLARLLEDQQVHFTPTEGDFHQAIHTLLLQVAAFAYQIEELMILLEYKIPRNEADGMPINVGDGGLFEKKLWGLKVLQELSQWTVRSIHDLRFISSHQTGIPARGSHYIANNKKM
- protection of PC12 cells from apoptosis induced by trophic factor withdrawal (PC12 cells [1]): little, if any, protection
- bcl-2 gene expression in PC12 cells (Bcl-2 mRNA in PC12 cells): did not induce bcl-2 gene expression individually
- viability of PC12 cells (PC12 cells [2]): ~33%
- undesirable side effects of administration [3]: muscle atrophy, cachexia and anorexia
